Reference: patent US20070286806A1, “Methods and Compositions for Modulating a Steroid Receptor” (Mount Sinai Hospital, priority 2004, published 2007)
Residues, ends and D or L forms follow the SMILES beside them. *: point of attachment. Cbz = O=C(OCc1ccccc1)*

T1: His-PSF (6xHis-tagged full length human PSF, amino acid 1-707) (human, UniProt P23246 1-707)
T1 construct: Expressed in 293T or SHM cells (co-immunoprecipitation, reporter assays) or translated in rabbit reticulocyte lysate with ^35S methionine (GST pulldown); 1 only as 'e.g.' of wild type PSF; also called His tagged PSF; His tagged PSF1-707; not shown: N-terminal 6xHis tag of vector pcDNA3.1 6xHis
T1 sequence: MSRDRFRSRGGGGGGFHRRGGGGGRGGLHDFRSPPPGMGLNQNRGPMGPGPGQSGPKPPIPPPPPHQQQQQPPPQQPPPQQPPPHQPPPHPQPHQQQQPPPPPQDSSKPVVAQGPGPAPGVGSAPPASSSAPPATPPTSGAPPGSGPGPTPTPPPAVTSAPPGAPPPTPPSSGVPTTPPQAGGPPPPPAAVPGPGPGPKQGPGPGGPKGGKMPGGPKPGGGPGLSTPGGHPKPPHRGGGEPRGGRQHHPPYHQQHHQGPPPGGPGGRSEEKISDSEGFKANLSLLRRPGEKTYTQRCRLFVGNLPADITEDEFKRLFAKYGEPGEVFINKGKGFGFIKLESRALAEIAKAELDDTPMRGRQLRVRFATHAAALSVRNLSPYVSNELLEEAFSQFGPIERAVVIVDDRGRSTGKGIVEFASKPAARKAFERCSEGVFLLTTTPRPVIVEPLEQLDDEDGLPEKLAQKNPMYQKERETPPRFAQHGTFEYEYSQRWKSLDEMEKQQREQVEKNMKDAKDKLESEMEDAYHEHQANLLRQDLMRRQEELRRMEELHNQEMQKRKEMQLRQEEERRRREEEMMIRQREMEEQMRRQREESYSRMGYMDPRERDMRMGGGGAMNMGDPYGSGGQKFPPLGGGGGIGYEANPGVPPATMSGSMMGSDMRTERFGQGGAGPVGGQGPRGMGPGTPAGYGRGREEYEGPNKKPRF


Key:
PRA and PRB protein = assay: PR protein level by western blot of whole cell lysate after co-transfection in SHM cells; type: cell-based
Method: FIG. 5. […] (A) SHM cells were transient transfected (eighteen hours) with PRA or PRB expression vector with or without increasing doses (0.2, 0.5, 1.0 and 2.0 μg) of His-PSF vector as indicated. Whole cell lysate was analyzed by western blot with PR or His tag antibody. NS=non-specific binding. (B) SHM cells were transient transfected (eighteen hours) with PRA or PRB expression vector together with 2.0 μg His tagged PSF1-707 or truncated PSF1-662. Culture media was added with or without 60 nM MG132 (Z-Leu-Leu-Leu-a1) as indicated for another 6 hours. Whole cell lysate was analyzed by western blot with PR or His tag antibody. Gβ protein was also detected as the cell lysate loading control.
For immunoprecipitation of the endogenous PR and PSF, T47D cells cultured in 150 mm dishes were lysed in 800 μl NETN buffer containing 150 mM NaCl plus protease inhibitor cocktail. Cell lysate were then incubated with 5 μg of PR or PSF, or control mouse IgG at 4° C. overnight, followed by the addition of 30 μl of protein A/G PLUS-agarose beads (Santa Cruz) for another two hours at 4° C. Resins were washed with NETN containing 250 mM NaCl and eluted with 1×Laemmli buffer. The eluted proteins along with the whole cell extract were western blotted by PR or PSF antibody. • GST pulldown assay: GST pulldown assay was performed as previously described (20). GST and its fusion proteins were first immobilized to glutathione-Sepharose 4B affinity matrix. The matrix was then incubated at 4° C. overnight with rabbit reticulocyte lysate (Promega) containing PR or His-PSF transcribed and translated in presence of ^35S methionine. The matrix was washed three times with cold NETN buffer before adding 1 ×Laemmli buffer to elute associated proteins. The eluted proteins were separated on 10% SDS-PAGE gel. Gels were treated with Enhancer (NEN, Boston, US) dried and analyzed by autoradiography. • Cell culture and transient transfection: SHM cells and 293T cells were maintained in DMEM plus 5% FCS (Sigma) as described before (22). For experiments involving steroid exposure, the medium was substituted with phenol red free DMEM containing 5% charcoal-treated fetal bovine serum (Hyclone, Utah, USA). Transfection was performed according to manufacturers protocol (Fementas). Cells were seeded at a density to achieve 60-80% confluency the following day. The DNA and transfection reagent were mixed and added to the medium. Cell lysates were collected at least 30 hours after transfection. For luciferase assay, cells were collected in 200 μl of lysis buffer (Promega) of which 10μl was used for the luciferase and β-Gal activity assays respectively. Luciferase activity was determined by using the luciferin reagent (Promega) according to manufacture's protocol. […]

PR protein = PR protein levels on over-expression of PSF in 293T cells; type: cell-based; details: 293T cells
[1] = target: T1, His-PSF (6xHis-tagged full length human …); assay: GST pulldown of ^35S-labeled PSF, autoradiography
Method: Bands were excised, reduced, allcylated and digested in-gel with trypsin as described (21). Tryptic peptides were extracted from the gel, desalted using ZipTip desalting columns (Millipore, Bedford, Mass.), equilibrated in 5% formic acid, washed with equilibration buffer and eluted in a solution of 5% formic acid and 60% methanol. Tandem mass spectrometry analysis was performed by using a nano-electrospray ionization (ESI) source (Protana A/S) coupled to a high-performance hybrid quadrapole time-of-flight API QSTARTM Pulsar mass spectrometer (MDS-Sciex, Concord, ON, Canada). After tryptic ion candidates were identified, product ion spectra were generated by collision-induced dissociation. For product ion scans, the collision energy was determined experimentally. Sequence and mass information of the peptides was used to screen the NRDB and dbEST databases. Databases were searched using the Mascot MS/MS search engine (Matrix Science, London, UK). […] Cells were plated at 150 mm diameter dish and grown to 60% confluent before transfection. Total of 15 μg plasmid was transfected by Exgen 500 (Fermantas). Eighteen hours after transfection, cells were washed two times ice-cold phosphate-buffered saline (PBS) then lysed in NETN buffer plus protease inhibitor cocktail. Protein concentration of the whole cell lysate (WCL) was determined by the Bradford assay and the WCL was diluted to 1 mg/ml in NETN. A 900 μl aliquot of WCL was incubated for overnight at 4° C. in suspension with either anti-His tag or anti-PR antibody, followed by the addition of 30 μl of protein A/G PLUS-agarose beads (Santa Cruz) for another two hours at 4° C. Resins were washed with NETN and eluted with 1×Laemmli buffer, boiled, and centrifuged. The supernatant was separated by SDS- 8% PAGE, electrophoresed to PVDF membrane, and visualized by ECL.

Molecule | binding result [1] | further results
CC(C)C[C@@H](C=O)NC(=O)[C@H](CC(C)C)NC(=O)[C@H](CC(C)C)NC(=O)OCc1ccccc1 [MG132, Z-Leu-Leu-Leu-a1, reference compound] (Cbz-Leu-Leu-Leu-aldehyde) |  | effect on PSF-induced loss of PR protein (PRA and PRB protein; final concentration of 60 μM for an additional 6 hours): block the loss of PR protein; effect on PSF-induced reduction of PR protein levels (PR protein): rescued
GST-PR fusion protein, amino acids 650-933 of PRB (other, also called other segments of PR; not shown: glutathione-S-transferase (GST) of vector pGEX 5X-2) ALDAVALPQPLGVPNESQALSQRFTFSPGQDIQLIPPLINLLMSIEPDVIYAGHDNTKPDTSSSLLTSLNQLGERQLLSVVKWSKSLPGFRNLHIDDQITLIQYSWMSLMVFGLGWRSYKHVSGQMLYFAPDLILNEQRMKESSFYSLCLTMWQIPQEFVKLQVSQEEFLCMKVLLLLNTIPLEGLRSQTQFEEMRSSYIRELIKAIGLRQKGVVSSSQRFYQLTKLLDNLHDLVKQLHLYCLNTFIQSRALSVEFPEMMSEVIAAQLPKILAGMVKPLLFHKK | no binding | 
PSF-1-662: truncated form of PSF, amino acids 1-662 (protein, UniProt P23246 1-662, looked up, fragment) MSRDRFRSRGGGGGGFHRRGGGGGRGGLHDFRSPPPGMGLNQNRGPMGPGPGQSGPKPPIPPPPPHQQQQQPPPQQPPPQQPPPHQPPPHPQPHQQQQPPPPPQDSSKPVVAQGPGPAPGVGSAPPASSSAPPATPPTSGAPPGSGPGPTPTPPPAVTSAPPGAPPPTPPSSGVPTTPPQAGGPPPPPAAVPGPGPGPKQGPGPGGPKGGKMPGGPKPGGGPGLSTPGGHPKPPHRGGGEPRGGRQHHPPYHQQHHQGPPPGGPGGRSEEKISDSEGFKANLSLLRRPGEKTYTQRCRLFVGNLPADITEDEFKRLFAKYGEPGEVFINKGKGFGFIKLESRALAEIAKAELDDTPMRGRQLRVRFATHAAALSVRNLSPYVSNELLEEAFSQFGPIERAVVIVDDRGRSTGKGIVEFASKPAARKAFERCSEGVFLLTTTPRPVIVEPLEQLDDEDGLPEKLAQKNPMYQKERETPPRFAQHGTFEYEYSQRWKSLDEMEKQQREQVEKNMKDAKDKLESEMEDAYHEHQANLLRQDLMRRQEELRRMEELHNQEMQKRKEMQLRQEEERRRREEEMMIRQREMEEQMRRQREESYSRMGYMDPRERDMRMGGGGAMNMGDPYGSGGQKFPPLGGGGGIGYEANPGVPPATMSGSMMGSDM |  | PR proteins after co-transfection with PRB/PRA (PRA and PRB protein; after 24 hours): total loss of PR proteins
GST-PR fusion protein, amino acids 456-556 of PRB (other, also called other segments of PR; not shown: glutathione-S-transferase (GST) of vector pGEX 5X-2) STLECILYKAEGAPPQQGPFAPPPCKAPGASGCLLPRDGLPSTSASAAAAGAAPALYPALGLNGLPQLGYQAAVLKEGLPQVYPPYLNYLRPDSEASQSPQ | no binding | 
GST-PR fusion protein, amino acids 164-456 of PRB (other, also called other segments of PR; not shown: glutathione-S-transferase (GST) of vector pGEX 5X-2) LMSRSGCKVGDSSGTAAAHKVLPRGLSPARQLLLPASESPHWSGAPVKPSPQAAAVEVEEEDSSESEESAGPLLKGKPRALGGAAAGGGAAACPPGAAAGGVALVPKEDSRFSAPRVALVEQDAPMAPGRSPLATTVMDFIHVPILPLNHALLAARTRQLLEDESYDGGAGAASAFAPPRTSPCASSTPVAVGDFPDCAYPPDAEPKDDAYPLYSDFQPPALKIKEEEEGAEASARSPRSYLVAGANPAAFPDFPLGPPPPLPPRATPSRPGEAAVTAAPASASVSSASSSGS | no binding | 
